# Experimental data: the DeepSol protein solubility set
# Assay: soluble on expression in E. coli; label from the status in PepcDB or PDB records
row,Sequence,soluble on expression in E. coli
1,MKKGVLFDLDGTILDFEKSEDQALKRTFLKYGIPLTEDQVFLYREINRKWWKLLAEGKVSKDVVVVARFEEFLKTLNIPLDPRKVAKDYLEFLSEEAHFLPGAEEFLERLKKKDLRMAVVTNGVRFVQEKRSRKLKLDRFFEFVLTSEEAGVEKPDPRIFWLALERMKLKKEEVLYVGDDFSSDLEGARNAGIDFVLFSSDGDSSGDFPVARNFKELEKIVEEFL,soluble
2,MLLRILIADDEPLARERLRVLLQAQMQHLEVVAEAENGEQVLHDCQRLNPDLVLMDIAMPGIDGLETARYLRYLPACPAVVFCTAYGDHALSAFDVEAIDYLMKPVRAERLHAALKRVQTFVAGRLREPQTSCDETPRTHLCVRIRGGLRLIPLDQVRYLQADEKYVVICHEQGEDLIEESLKSLEKEFSDRFVRIHRNCLIARAELTELRRCSDGQVQAVLRNVVTPLAVSRRCVPLLCDQLRLSAVLTGRWLEHHHHHH,not soluble
3,MPSETLWEIAKAEVEKRGINGSEGDGAEIAEKFVFFIGSKNGGKTTIILRCLDRDEPPKPTLALEYTYGRRAKGHNTPKDIAHFWELGGGTSLLDLISIPITGDTLRTFSLVLVLDLSKPNDLWPTMENLLQATKSHVDKVIMKLGKTNAKAVSEMRQKIWNNMPKDHPQDHELIDPFPVPLVIIGSKYDVFQDFESEKRKVICKTLRFVAHYYGASLMFTSKSEALLLKIRGVINQLAFGIDKSKSICVDQNKPLFITAGLDSFGQIGSPPVPENDIGKLHAHSPMELWKKVYEKLFPPKSINTLKDIKDPARDPQYAENEVDEMRIQKDLELEQYKRSSSKSWKQIELDS,not soluble
4,MGHHHHHHSHMLEPQENGVIDLPDYEHVEDETFPPFPPPASPERQDGEGTEPDEESGNGAPVPVPPKRTVKRNIPKLDAQRLISERGLPALRHVFDKAKFKGKGHEAEDLKMLIRHMEHWAHRLFPKLQFEDFIDRVEYLGSKKEVQTCLKRIRLDLPILHEDFVSNNDEVAENNEHDVTSTELDPFLTNLSESEMFASELSRSLTEEQQRRIERNKQLALERRQAKLLSNSQTLGNDMLMNTPRAHTVEEVNTDEDQKEESNGLNEDILDNPCNDAIANTLNEEETLLDQSFKNVQQQLDATSRNITEAR,soluble
5,MGSDKIHHHHHHMAYFAEIFQIPFEESWGYVTNGGTEGNMFGCYLARELFPDSTLYYSKDTHYSVGKIAKLLQMKSCVIESLDNGEIDYDDLIHKIKTNKESHPIIFANIGTTMTGAIDDIEMIQERLAQIGIMRRDYYIHADAALSGMILPFVDHPQAFSFAHGIDSICVSGHKMIGSPIPCGIVVAKRQNVERISVDVDYISTRDQTISGSRNGHTVLLMWAAIRSQTNLQRRHRIQHCLKMAQYAVDRFQAVGIPAWRNPNSITVVFPCPSEHIWKKHYLATSGNMAHLITTAHHRDTRQIDSLIDDVIFDLQGASKRTVGF,not soluble
6,MNEPPVSVVLPTYDRPEILRNAVKSVQEQTYRHIELVVVDDHSPTPAADTLSPLSFDELTVEIIRHEENRGANEARNTGIRESTGEYIAFLDDDDDWAPSKIEKQVAVFREASPEVGVVYTGSEYVYDDYVRTVVFSLEGDVTEEMLRGRSLGEFTTLMVRRDVAMAAGLPDTDFPSWQDRDWLLRLSCHCKFKTVPEALTTRRRKTGEDSISDNFEEKRDISYPLFIEKHRDLAAEYGWRCERAFMAATTESLGQEALKNGYYADAKKYFLKALRYHPLDRSRLVYALVAYGGKYTYGAAHTLASLLHRVRTDTIHKLEHHHHHH,not soluble
7,MSPMNRQRKNKSHVLNEKDERPGGIIKEKSSVRSMAKTQPPSGRTISLTEINKPNALSKKNTEIKAAVEIQNRLTKKMAKNSERRKQMAHGPEMTAQNRTQERIDFVDFLDRHYQVIQAGVHKIQYTKEEFENVIYEAQTIFSSEKALVDIDPPCVVVGDLHGQFNDLINMFILLGRPPETVYVFTGDYVDRGMMSLECIMLLFTYKICYPENIVLLRGNHEIARVNKKYGFYEECVTSIPKCGEEIWALFQRCFNNLPISALIATKILCMHGGLSPALTCLDELRNHPKPIRNPFRGIVNDMLWADPDPSVFEWKASSRGSGFTFGTNVIDDVCKRLGVELIIRAHQMCFDGYWVLSGRKLITIFSAPMYCNFYKNAGCVLKVDETLGIQMIAFVPASENIEKIIEEKNRVWDISIDCID,not soluble
8,MLNTIVLIRTDNFDKALTALADLVRYGGMKIRGTPRIIPPALSDWAFEQIVGEKPKKKVKAHVVAQIDLPASKAIGRIRDIHPPAHIIVIPVGSPVHKELLRLWGTFKELKGFHPPKEIKRLENIENEEDLELEHHHHHH,not soluble
9,TSHHHHHMKKIEHKMVAVNGLNMHLAELGEGPTILFIHGFPELWYSWRHQMVYLAERGYRAVAPDLRGYGDTTGAPLNDPSKFSILHLVGDVVALLEAIAPNEEKVFVVAHDWGALIAWHLCLFRPDKVKALVNLSVHFSKRNPKMNVVEGLKAIFGEDHYISRFQVPGEIEAEFAPIGAKSVLKKILTYRDPAPFYFPKGKGLEAIPDAPVALSSWLSEEELDYYANKFEQTGFTGAVNYYRALPINWELTAPWTGAQVKVPTKFIVGEFDLVYHIPGAKEYIHNGGFKKDVPLLEEVVVLEGAAHFVSQERPHEISKHIYDFIQKF,soluble
10,MSLEKKHSVNVEIENPPGRFFIPEDYVQNPVERLRLYRRLASSLDEEDLEEILEEMKDRFGEPPEEVKLLVDYFRLRVRASKLGIKKIRFDHSMVEIFPSRNSPFLNHPRYDRRSGSVVLYTRKDPVEFLMDMKGIITITTDPNSSSVDKLAAALEHHHHHH,soluble
11,MNSCDFRVFLQEFGTTVHLSLPGSVSEKERLLLKLLMQGMSVTEISQYRNRSAKTISHQKKQLFEKLGIQSDITFWRDIFFQYNPEIISATGSNSHRYINDNHYHHIVTPEAISLALENHEFKPWIQPVFCAQTGVLTGCEVLVRWEHPQTGIIPPDQFIPLAESSGLIVIMTRQLMKQTADILMPVKHLLPDNFHIGINVSAGCFLAAGFEKECLNLVNKLGNDKIKLVLELTERNPIPVTPEARAIFDSLHQHNITFALDDFGTGYATYRYLQAFPVDFIKIDKSFVQMASVDEISGHIVDNIVELARKPGLSIVAEGVETQEQADLMIGKGVHFLQGYLYSPPVPGNKFISEWVMKAGG,soluble
12,MGSDKIHHHHHHMNNIIATGFNTASTDGELDSLERELRRLEAIGVDTVELALSSLDLIAGGRIVKERGDRLRTLLETFSFRYTVHGLVSSNFMDPATRRHQVDAAKALVEICDSIDARVLVQHAGFLRADQIAQRAGADERQCEALLELGEHAKAYGIRIAFENIFTTEPGQYRQTPAEVAATVKAVNHPDVVALIDFSHAYLESNYRGLDFRDQLRAMAPVLGAPGRRLSRRTATTRIVVITDGGMECSTGWTS,not soluble
13,MAHHHHHHMTMRRFGGALTRPLGGMRRVVVGPNGSVPEAGCVPTFETRRRKRLRLGGSLTGDWVASTESLSGSCVREEEARLLCFEKYGFVHKPLTMASWSDFLQELARFEFRWRLLPCVGGVTVLNIVERNCGDENVLCDLRTSCGSAPFAQFFECLGAFVQGTSEKRCIMFCDPNGLEQSLEIRAKRHLSPALGEGFEDEKPILPTLAQYDCRGTLVDLVLKDMKTDVLRPIISDISMQALNYAFLVSIPLFLRQADVGVRNTDLVSKEQMRHFRFAWCFLRRESMMTPVEIGELDTLLPP,not soluble
14,MDDSLGVSEVVMIPFMKREVLQQICAILDTDNTWETIAPYMPGIELRDVEGCKRYSSYNQSPSELLLRIWSSKGYSTTHLYQLFAKTKLIRLMRMMRSQVHEKYHYLENKVTNSTSRVSKQMVQPPGSQSASRLKKTEIKESSPSPAAAAASQLSRSNTDDTLRVAIEGTLPVTYCELLEATNGFAVSNVIGKGGYGTVYKGELKGTGGIVAVKRLHSGNDTSQNGSRERLRQSLTELRTLARFRHDNILPIYAYSLEGSEPCLVYQFMSNGSLEDRLLCRKGSVPLTWIQRKEISIGAGRGLGFLHSFGKTPIIHGDIKTANILLDKHMEPKIGDFGLCRDGHVEAEAMEKHPLIASHIKGTLAYLAPEFITSKILTTKLDVYSFGIVLLEIASGQRAYSDSRETRGLVEYCQVNKELAAHRKIPVREIFIDRRAPPLVGDEEKSFLDALIEVGLAGANNDRKVRPTMSQIVEYLCKNSIPPVV,not soluble
15,MVVKFTKSEALHKEALEHIVGGVNSPSRSFKAVGGGAPIAMERGKGAYFWDVDGNKYIDYLAAYGPIITGHAHPHITKAITTAAENGVLYGTPTALEVKFAKMLKEAMPALDKVRFVNSGTEAVMTTIRVARAYTGRTKIMKFAGCYHGHSDLVLVAAGSGPSTLGTPDSAGVPQSIAQEVITVPFNNVETLKEALDKWGHEVAAILVEPIVGNFGIVEPKPGFLEKVNELVHEAGALVIYDEVITAFRFMYGGAQDLLGVTPDLTALGKVIGGGLPIGAYGGKKEIMEQVAPLGPAYQAGTMAGNPASMASGIACLEVLQQEGLYEKLDELGATLEKGILEQAAKHNIDITLNRLKGALTVYFTTNTIEDYDAAQDTDGEMFGKFFKLMLQEGVNLAPSKYEAWFLTTEHTKEDIEYTIEAVGRAFAALADNK,soluble
16,QYRHLLDLQPMLEALSESSFLNQPVEGHGPLGIIAFGIGYNYAMEARKAHSIECRLLKIGQYPLPRTQVNELFEACSEVLVVEEGYPVYEELFRGYFGSAKVRGRMDGTLPRDGELTTDLVAAALGVKPPETATTPEIVVGRPPELCKGCGHRDMFDAINIAIKENADHHVFSDIGCYTLGALPPYNAIHTCVDMGAAITMAKGAADAGLRPAVCVIGDSTFAHSGMTGLLDAVNDRTPVTVIIADNNTTAMTGGQCSSASGSKLVNICIGLGVEEA,not soluble
17,MGSDKIHHHHHHMITTWKHHETIEKAKRNAEQKIVSNVEHVEHIALVNQKRVLDAFKRKQVSEHHFTPSTGYGYDDLGRETLEAVYADVFGAETALVRPQIISGTHAIATVLFGLLRPGDELLYITGKPYDTLEEVIGIRGEEGGGSLKDFGITYHAVPLTAEQKVDKAAVKAAMNERTKVIGIQRSKGYADRPSFSINEIEQMVQFVKGINPNVIVFVDNCYGEFVEAKEPCHVGVDVIAGSLIKNPGGGIVKTGGYVAGKAPYVKQASYRLAAPGIGTEGGATLYSLLEMFQGLFLAPHVVSQAVKGAHFTAAFLDELGMRTSPRYDEQRTDLIQSVQFPDREKMIAFCQAIQAASPIDAHVTPQPSSMPGYEDPVIMAAGTFIQGASIELTADGPVRPPYIAYVQGGLTYEHVKLAVMQAADEMLSLETKGTPS,not soluble
18,MNTQILGLHHVTAMTSSAEKIYHFFTDILGLRLIKKTVNQDDIETYHLFFADDAGSPGTDMTFFDFPGLPKGTKGTNTISRTSFRVKDDATLDYWVSRFNEYAIDHGEIQERFGKKYLEFEDFDNQRYQLISDEKNQCVAAGTPWKKSNVPSEHALIGLGPAFVTVENYEHLQLVLTEVLGFKLIDAEGSFHLFEVGEGGNGASIIVEHREDLPAAQEGYGNVHHLALRVADEEALRFWIEKINRLEFPNSGFVERFYFKSEYFLAATHVLFELATDGPGFLEDETYEHAGEKLSLPPFLEPKRAGIEEFVRPFDTSDANVQRN,not soluble
19,TKAVHTKHAPAAIGPYSQGIIVNNMFYSSGQIPLTPSGEMVNGDIKEQTHQVFSNLKAVLEEAGASFETVVKATVFIADMEQFAEVNEVYGQYFDTHKPARSCVEVARLPKDALVEIEVIALVK,soluble
